Patent US20240026407A1, “MODIFICATION OF SAPONINS” (GLAXOSMITHKLINE BIOLOGICALS SA, priority 2020, published 2024)

Tests used:
Assay type in all cases: biochemical, Quillaja saponaria
[1] = Experiment 6-1: specificity of rhamnosidases towards other rhamnose residues (C3 saccharide rhamnose, C28 saccharide rhamnose); conditions: TBE 2%, pH 7.5, 30 degC, 18 h; LCMS/MS; negative controls 0.18, 0.17
[2] = Experiment 6-1: screening of rhamnosidases for derhamnosylation of saponins in treated bark extract (2%), desglucosyl-QS-17 2134 to QS-21 1988 (PAR %); conditions: TBE 2%, pH 7.5, 30 degC, 18 h; TIC peak area ratio percent, LCMS/MS; negative controls 2.719, 2.158
[3] = Experiment 6-1: screening of rhamnosidases for derhamnosylation of saponins in treated bark extract (2%), QS-17 2296 to QS-18 2150 (PAR %); conditions: TBE 2%, pH 7.5, 30 degC, 18 h; TIC peak area ratio percent of rhamnosylated starting saponin to derhamnosylated product, LCMS/MS; negative controls 4.876, 5.225
[4] = Experiment 6-1: screening of rhamnosidases for derhamnosylation of saponins in treated bark extract (2%), QS-17 2310 to QS-18 2164 (PAR %); conditions: TBE 2%, pH 7.5, 30 degC, 18 h; TIC peak area ratio percent, LCMS/MS; negative controls 3.061, 2.429

Molecule | ratio PP/QS-21 [1] | Peak75 (PAR %) [2] [%] | QS-17 (PAR %) [3] [%] | Peak57 (PAR %) [4] [%]
997 (protein, Lachnoclostridium phytofermentans) MKSFIKELIEQKEGNYILPFFWQHGESEGKLREYMEAIHSCGIRAVCVEARPHPDYLGPGWWHDLDIIIDEAKKRDMKLWILDDAHFPTGYAAGKIAESEDKYCKQYISRKFIDVSGPTPEVEVNLAAMMMPIMLPSGLNLEMFGMSSEKKRYFTDDRILSIRAYQMDKDSSLIGEGIDLTTNIVNGKLIWDVPKGTWRINVLFITRNGEGRCDYINMVDKDSCRIQIDAVYEPHYEHYKEEFGKTIAGFFSDEPCLGNSIGYNFDESIGKKKTPLPWSSQLEKMLEEKLGKEYLPYYPALWTDMADEKVNARVRYAYMDCVTRLVEENFSRQIGQWCEERGVEYIGHIVEDNNQHSRLGSSQGHFFRSMMGQHMSGIDNIGDQVLPGGENHKREALLGADKDGEFYHYELGKLGSSLAHIDPKKQGRAMCEIFGAYGWRLGIRTMKYLMDHFLVRGINVYVPHAFSPKDFPDSDCPPHFYAGGEDPQFNYFKKLMHYTNRMCHLLNGGTHIAPAAVLYHGEAEWTGGCMFNQKVARELLESQIDFDILPSDVFADMSAYNATFDGFLQVNGESYDCFIVPYAEFITKEVAVFAGTASKKGFPVFFVQGLPESICNIDKKEEEKLLLDGMSECIVVPLEALSKTLKDNKLFEISSDNQFDGLRYYHYRKEQTELYMFSNESIGKEYNGWITVKSKGEVSLYDAMDNRIIPAEYRNTEDGTSIHIRLTPYQSVVALFEDLKEVEDQGNFEAKPGYRLDAAWRISSAEVSKYPEFQPVEVTTELKSMGRVLPDFSGYLRYESEFVYDRMPTGRELLNITDVYEGAEVWLNGHCLGMKICPPYQFPLGEALRAGENHIRIEVATTLDRKVKSLPQDMRSLMFYSKITEPTGIVGSVEIWN | 0.17 | 2.115 | 4.754 | 2.906
1032 (protein, Spirosoma linguale) MRYIFFLGLLAASLTAFAQTAPTNLRTDLLLHTDKVWSNGFLTNYTLDGADSAKFAGQLALIRSSRPSFSWVLSTAGGTSRQTAYRLILSTSRQKNQADAGDVWDSGKVMSSQSVGILLPASQKLDTNRIYFWKVKVWNERNLESDFSQPKAFRTAPRLTAYETPFYPLVKTEEAPRSQRTLAGQRIVYDFGKDAFGQAFLTVSSASESDTLIVHLGEAVTADGHVNEKPSGTLRYRQIRVPLQKGTHRYAIQFKPDKRNTGPKAILMPDYIGEVLPFRYVELAFNPATRIEQIVRQVVTYPFDDSATTFSSSDSTLNQIWDLCKHTIKATTFTGYYVDGDRERIPYEADALLNQLSHYATDAEYNMAKRSLNYLVFHATWPTEWSLQNVLIAWYDYLYSGDSRTVEALYPELKAKLLLPLARPDGLISTRTGLQTPEFKKSIHYDTFDGRPTIQDIVDWPQQGVLGLGKKEAGETDGFVFTDYNAVVNAFHYQGLVFMAQLASRLGKTDDAAFYANRAGLVRKAFQATFIHPKTGLVRDGEGTDHASLHANMMALAFGLVPEKLQSQVLAHIRSRGMACSVYGSQFLLDALYNANESAYGLALMTSTDERSWYNMLRTGSTMTTEAWDTRYKPNQDWNHAWGSAPANIIVRKLMGVEALTLAYETVQIKPQPDTLRQASLQVATLRGPISVAFDNTPDRFVLRTTLPANTNGVVYLPRKKTKSQVLQNGKSVKAAVEGNFWKITSVGAGTHEWEVR | 0.17 | 2.411 | 4.730 | 3.044
1038 (protein, listed as Formosa agariphila) MILHKSVFKSYIYVLTYFVFFSVMSCENSSVLQEAKHLTISEGFKNPLGFYDAKPTFSWELPVVEGVISQSAYQIVVASSPDLLPNNPDLWDSNKQSSSQSVWINYEGKPLVSRQKVFWQVKYWNQDDKASNWSPVQNFELGLLNNSDWKAKWIGLPTKEEGVLGSQDNIIHRPQYLRKVFELSNDVANARLYITAKGVFDVAINGEDVSDDVMPPGYTPYKKRIETITYDVTDLIESGQNTIGVEVAAGWHSGRLGWMKSYWSDTESPKILCQLEVTMKDGSKASIISDDTWKATTQGPIRISEIYDGETYDAHLEMPHWTTNSFDDKNWKAVQAFPVTSTIKLEPKRHTTVKSKIVLESKEIILKADAAIFDLQQNMVGVPLLKVPMKMGDTLKIRFAEMLSPDGTFYTDNYRSAQSTDYYIAAKEGTIEWMPKFTFHGFRYVELSGFDASKTPSKNWVKGVVQYSNFNENGSFTSSHEKLNQLQSNIVWGLRGNFFDIPTDCPQRDERMGWTGDAQVFGPTSMFNADVYKFWASWMQSVRESQYDNGGIPFVVPDVLHNGKVSSGWGDVCTIIPWKIYYRTGDVGILEENYDMMKKWVAHHQATSKDFISHMNSFADWLQPYPENGNNKGDTSHSLIGTAFFAHSAKLTAKTAEVLGKKEEQATYEALYKSVAKAFENAFFKNGKVKDVTATQTSYLLALAFDLLSEENKENAKQQLLEKISEADNHLRTGFLGTPLLSEVLDETGEIDLMYKLLFNETYPSWFYSINQGATTIWERWNSYSKAEGFNPMKMNSLNHYAYGAIGEWMYERITGIAPLQAGYKIISIAPIPKAPLTSASATLNTPYGEVASSWEIKNETLFLEVVVPPNTTAEIEIPTDNSESLKVDNENFTNGKNLKLIKNEKRKIKILAQPGTYEFQAKYSL | 0.18 | 2.512 | 4.725 | 2.913
1045 (protein, listed as Acidobacterium capsulatum) MLVGGLATAATAQTNLQQLEKTFQNPPDNAKPMLRWWWFGPSVTKPEILREMQQIKAGGFGGFVIHYVYPLALDDPQTGFRNLPFLSPAMLSDVSYANRQAHALGLRAGTALASGWPYGGPMTAVTEAAAKIVQKESTVAPGAHSVALPSIGNGQKLLAVFAQDGSAGSQQKMLPLPAPVTLRMAIPTGTHIVDWYLMSRTGQQVKRAAVDANGFVLDHFSHHAVADHLKNVGDKLVAAFGSEPPDSVFSDSLEVFGADWTPDFLEEFRKKNGYSLLPYLPDLFMKHPDAQALAVRHDWGVTLTALIDENYLTQVNAWARAHHTHLRAQVYGPPAVSLSSNNLVDLPEGEGPQWRQFAYTRWATSAGHLYGRPIISSETFTWLHSPAFRATPLDVKAEADRFFLQGVNQIYCHGWPYSPPSAGEPGWRFYAAAVFDAHNPWWIVMPEVTQYLQRVSWIMRQGAPANRVAIFLPEDDAWAAFTPGQVALTGLLPRWITPQLTQAIENSGYDFDYIDAAAIQARGIHYSLLILPNVDRISPAALTAIQQYEKSGGKVIALGRIPAHAPGFLHYEQISAEVNRESHAFFGHPGARVRVVQAVSGLGDALHQMLTPAMTLSAAKPAVGFVRRKLDDADIYFLANTSNVSIHTVAHLRSRYTSGTWLDPMSGKAYAAQSRNGGWPLHLAPYGSTILVLHAKNVRLPVAAGHDSFNPSSTKAIADLSSDWNVSFPALHLQEPMATLASWTKNEKTLYYSGVAVYRRTLEVAQNDLDHAPLLLSFGQGTPVSPSAFHRQMGTRAWLNPPVHVAAVVYVNGRLAGTVWHPPYVLAVGGLLKPGANQIEVRVANTAINEMAGKSLPDYRLLWARYGRRFEPQDMKHLQPLPSGLLGKVELLEGESR | 0.17 | 2.442 | 4.741 | 2.865
1057 (protein, listed as Parabacteroides goldsteinii) MKVDITKIFTILFVIAFAGCLLQSCNSSINGLEQGFFNPPDSVRPGVYWYFMDGNLSKEAMTKDLESMKEAGIGHVVYLEVNVGVPRGSVDFLSDEWQEMFAHAVAECERLGIDITLGVGPGWTGSGGPWVEGAQSMMHLVSSSVNVSGKGKKTIALPKPSPKPHFFAEDNFTPESKKRWEEYYEDVAVLAFPAGASTFGTDYEAGSAYLRITGIEEKALYYRKPYSSVTQVKPYLTFGKDSFTVQTVDKDCIIDLTDHLEIDGTLTWEVPEGDWTIMRFGARNNGAVTRPAPHPGVGLETNKFDTTALNAHLDKFVTKLFNRVGFKKAQPQGGLQMLHMDSWEMGAQNWTTHFREEFTKRRGYDPQPFYPVYAGFIVQSREESERFLWDLRVTSQELIKEYHAGHIKSYGKRYGLGLSIEPYDMNPTADLELASVADMPMCEFWSVGYGYNTSFSAMEGTSVAHLLGQPVVPAESFTAYLDGWRQHPGSMKNQTDWALASGINRLMFHTFQHQPLNDRLRPGMTMGPYGVHWDRNQTWWPMADAYHRYISRCQLLLQQGRTVADILYLTPEGAPHVFRAPISALEGDLLDTDNLFNFRNETPLPDRKGYNFDACPPSLFYDAQVKDGKVVFPSGVSYRLLVLPCFETMTPELLEKIRDLVNGGATVVGLPPQKSPSLVNYPVCDEKVRVLVQELWGGYEIPETVEIRSIGKGKVIWSKELLEQQDNLYPTYEYTADILAKMDVHEDFESTGEIRYTHRTMKGYEIYFVSNRKDSPVTVNCKFRMTGHPELWNPMTGEIRPLAEYTVTGVHTTIPLLFDANEGYFIVFRDNTFQREIQTKKNFPDSRRVASLTAPWSVSFDPAWGGPEQVTFEKLTDWTQHPDSGIRYYSGTAIYRQTFDRPADNSKQQFLDLGKVKNLARVRLNGQDLGVVWTAPWRVEITKALKLKDNQLEIEVVNLWPNRLIGDEQLPDDGIRNGEWPEWLKDGGPRTSGRYTFTTYKHFTKESPLLESGLLGPVTIWGIDN | 0.15 | 2.498 | 4.670 | 3.213
1047 (protein, listed as Brachybacterium faecium) MSSHTAQHVLDALTHPDPAARPMMRWWWFGPDMDRAEIDRELRAMAAAGLGGAEIALVYPLRPGAPDYLGDEALGHVRHAAERARELGLRLDVTLGSGWSYGGPHIGPEQAARRLRWERRDLGPQPLSWPLTPSWPGDELVSVHLGEGLPPSGWTRLDPVGERLEIPAGRGPRTVLLAWSEVTGQQVKRSAAGAEGPVVDHLSATAVRHHLDVVGGALLSAVPAHLLGSVFSDSLEVYDAGWTAALPEQFRQRRGYDLLPVLHLLEVDAPGAEQVREDYGLTLSELVEEGFVGTCRAWAEEHGVRFRLQGYGQPPITLSAQRGAHLIEGEGAGWTALTQSRWASSAAHLDRREVVSSEVWTWVRSPAFRAAPLDLLGEAHEHLLLGITHFVGHGWPYTAPDAPGLGWTFYAAGALDDRNAWWPAMPELTAHLTRLCAALRLGAPGAEVALYLPYADVRAARGRGHDLWAACRAHIGEQLPAAIRRAGYDLDLLDDDALAALDPAAYPVVVLPRVSRLPAETRRWLDRVRAAGGSVLAVDSPAYPAGQQLSLPEEDGDDARLRDHATLAMVGARGGSDAEGEEGADGEGADGEAAGGKNPLAAALRGAHTPPLLLSGDGGEVGTVHRRLADGDLHLLAHTGPRRREVEVTPRDPRRALALHDPAEPGLRPLPSTGARLVLHPYQAVLLLATDQPLPAPDGAAPATDAAHGPAQTGTAEPEPIALDGPWTASRPGEAPRAVTLPHLLTGQDAADLRPLLLETTVTLDEDTARGPLVLDLGPGRAVPHTGEGSGYRALLEPPVREIAVLEVDGEELGVLWRPPYRIALTGRLRAGTSRLRLRIHGTTAAAAALPENAEAAAGQVAAAHETYGERFQPQELERMLDGVATGLASVPVLRRAGG | 0.17 | 2.456 | 4.669 | 3.332
